Measurements: patent US20210332120A1

Target: human IL-17A (human) (UniProt Q16552)
Assay: BLI Octet Red 96; Fab on anti-FABCH1 sensors, IL-17A 30 µg/ml as analyte, 1:1 model

Sequence of human IL-17A (human) (Q16552 20-155 limits assumed): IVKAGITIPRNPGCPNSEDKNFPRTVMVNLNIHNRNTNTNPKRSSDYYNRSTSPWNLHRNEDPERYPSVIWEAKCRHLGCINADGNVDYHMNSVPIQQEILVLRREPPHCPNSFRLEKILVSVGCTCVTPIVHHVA

B1: 3VHHVK4B11 Fab (Fab, part only; not given: Light chain VK4B11, tags, not shown: small tags and cut ends)
heavy: QVQLQQSGGGSVQAGGSLRLSCAASGGTFATSPMGWLRQAPGKEREFVAAISPSGGDRIYDDSVKGRFTISRDNAGYFIYLQMNSLKPEDTARYYCAVRRRFDGTSYYTGDYDSWGQGTLVTVSS
For B1, the koff was < 2.27e-06 s⁻¹.
